The text below walks through data of patent publication US20240262901A1 (published 2024).

For one test, the target named is T1, human RGMa (human, UniProt Q96B86 48-422, limits assumed, biotinylated in the indirect ELISA).
T1 construct: also called hRGMa; biotin hRGMa
T1 sequence: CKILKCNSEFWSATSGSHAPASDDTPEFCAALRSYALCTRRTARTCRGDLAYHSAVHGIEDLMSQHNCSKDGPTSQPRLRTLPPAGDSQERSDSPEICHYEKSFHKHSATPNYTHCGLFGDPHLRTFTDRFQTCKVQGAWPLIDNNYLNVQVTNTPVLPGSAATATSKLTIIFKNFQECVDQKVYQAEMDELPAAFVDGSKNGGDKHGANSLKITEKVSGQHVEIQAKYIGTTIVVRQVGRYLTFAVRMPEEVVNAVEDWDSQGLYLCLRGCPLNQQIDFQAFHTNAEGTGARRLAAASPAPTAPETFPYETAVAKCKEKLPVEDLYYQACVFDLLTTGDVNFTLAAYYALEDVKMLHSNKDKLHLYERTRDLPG
Put plainly: BIAcore; Ab captured via anti-hIgG Fc, antigen injected. As to the method:
(§1) The potency data correlates with the affinity data (see Table 5). The affinity of h5F9.23 affinity matured Abs towards human RGMa, rat RGMa, and human RGMc were determined by BIAcore analysis (Table 5). Testing Abs were captured to the surface of a CM5 chip via anti-hIgG Fc Ab, and serially diluted antigens were injected. Association and dissociation rates were monitored for 5 and 10 min respectively. Sensorgrams were fitted by global analysis using the BIAevaluation 4.0.1 software for a 1:1 Langmuir binding model. The equilibrium dissociation constants (KD) were calculated from kinetic rate constants (off rate kd and on rate ka): KD=kd/ka.

A further test deals with Rat RGMa (rat, UniProt D4A188 170-424). The test is described as above. As to the method:
as §1

Sequence of Rat RGMa (D4A188 entry or part of it): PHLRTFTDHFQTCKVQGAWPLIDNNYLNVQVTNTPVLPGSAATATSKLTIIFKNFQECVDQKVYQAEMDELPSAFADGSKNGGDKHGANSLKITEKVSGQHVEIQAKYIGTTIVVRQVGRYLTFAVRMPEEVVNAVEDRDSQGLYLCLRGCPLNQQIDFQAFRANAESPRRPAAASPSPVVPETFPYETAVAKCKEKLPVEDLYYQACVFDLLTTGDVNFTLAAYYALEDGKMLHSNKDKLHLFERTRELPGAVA

B1: humanized antibody 5F9.23 (antibody, V domains shown)
VH: EVQLVESGGGLVQPGGSLRLSCAASGFTFSNYGMNWIRQAPGKGLEWIGMIYYDSSEKHYADSVKGRFTISRDNSKNTLYLQMNSLRAEDTAVYYCAKGTTPDYWGQGTMVTVSS
VL: DVVLTQSPLSLPVTLGQPASISCRSSQSLEYSDGYTFLEWFQQRPGQSPRLLIYEVSNRFSGVPDRFSGSGSGTDFTLKISRVEAEDVGVYYCFQATHDPLTFGQGTKLEIKR
notes: also called h5F9.23; H5F9.23
Turning to B1, the kon (as a rule, the second-order rate constant of association) in the test with human RGMa worked out at 6e+06 M⁻¹ s⁻¹. In the test with Rat RGMa, the Kd (usually the free concentration of one partner at which half of the binding sites on the other are occupied at equilibrium, for simple one-to-one binding) came to 2.1 nM; the koff (in general, the rate constant with which the complex falls apart) was found to be 0.0017 s⁻¹; the kon is 830000 M⁻¹ s⁻¹.
